Experimental data reported in article PMC6915727.

Molecular target: human Toll-like receptor 5 (TLR5) in stably transfected HEK293 cells (TLR5+) (human) (UniProt O60602)
Chain of UniProt O60602 (O60602 21-858): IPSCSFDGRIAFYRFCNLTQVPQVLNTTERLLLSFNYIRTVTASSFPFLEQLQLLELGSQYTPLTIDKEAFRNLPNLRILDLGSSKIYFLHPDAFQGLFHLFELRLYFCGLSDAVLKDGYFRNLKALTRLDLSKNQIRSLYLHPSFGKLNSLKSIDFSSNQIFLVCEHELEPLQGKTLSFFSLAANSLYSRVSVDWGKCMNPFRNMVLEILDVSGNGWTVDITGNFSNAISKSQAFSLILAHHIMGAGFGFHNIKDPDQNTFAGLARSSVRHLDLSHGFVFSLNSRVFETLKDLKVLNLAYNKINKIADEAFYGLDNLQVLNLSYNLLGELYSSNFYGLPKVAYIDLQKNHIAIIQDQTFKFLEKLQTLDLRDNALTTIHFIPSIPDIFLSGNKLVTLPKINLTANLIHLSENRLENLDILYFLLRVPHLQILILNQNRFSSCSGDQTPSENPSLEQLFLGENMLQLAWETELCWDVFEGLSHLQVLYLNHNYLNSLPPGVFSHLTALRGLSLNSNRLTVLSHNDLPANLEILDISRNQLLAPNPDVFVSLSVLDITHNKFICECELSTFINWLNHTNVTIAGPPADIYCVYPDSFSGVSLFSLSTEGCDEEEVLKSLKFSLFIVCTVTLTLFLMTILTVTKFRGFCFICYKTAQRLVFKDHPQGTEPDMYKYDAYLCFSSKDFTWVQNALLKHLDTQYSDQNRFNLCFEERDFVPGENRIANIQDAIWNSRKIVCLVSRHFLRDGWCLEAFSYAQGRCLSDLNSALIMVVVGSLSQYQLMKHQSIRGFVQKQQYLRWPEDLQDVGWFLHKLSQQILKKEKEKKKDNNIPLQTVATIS

With “recombinant CagL wild type (CagL^WT), C-terminal His-tag fusion (natural protein)” the NF-κB luciferase activity in TLR5+ HEK293 cells, dose-response of recombinant CagL WT (EC50) was 173 nM.
